# From patent US20240270846A1 (published 2024)
# Positions count from the first letter of the chain named. In names and notes the source's numbering stands.
# B1: CE115HA000 G98D one-arm antibody (antibody, human IgG1, kappa, L234A L235A, N297A, name in Kabat numbering)
# heavy: QVQLVESGGGVVQPGRSLRLSCAASGFTFSNAWMHWVRQAPGKGLEWVAQIKAKSNNYATYYAESVKGRFTISRDDSKNSLYLQMNSLKTEDTAVYYCRYVHYDAYYGVDAWGQGTTVTVSSASTKGPSVFPLAPSSKSTSGGTAALGCLVKDYFPEPVTVSWNSGALTSGVHTFPAVLQSSGLYSLSSVVTVPSSSLGTQTYICNVNHKPSNTKVDKKVEPKSCDKTHTCPPCPAPEAAGGPSVFLFPPKPKDTLMISRTPEVTCVVVDVSHEDPEVKFNWYVDGVEVHNAKTKPREEQYASTYRVVSVLTVLHQDWLNGKEYKCKVSNKALPAPIEKTISKAKGQPREPQVYTLPPSRCELTKNQVSLSCAVKGFYPSDIAVEWESNGQPENNYKTTPPVLDSDGSFFLVSKLTVDKSRWQQGNVFSCSVMHEALHNHYTQKSLSLSPDYKDDDDK
# chain: EPKSSDKTHTCPPCPAPELLGGPSVFLFPPKPKDTLMISRTPEVTCVVVDVSHEDPEVKFNWYVDGVEVHNAKTKPREEQYNSTYRVVSVLTVLHQDWLNGKEYKCKVSNKALPAPIEKTISKAKGQPREPQVCTLPPSRDELTKNQVSLWCLVKGFYPSDIAVEWESNGQPENNYKTTPPVLDSDGSFFLYSKLTVDKSRWQQGNVFSCSVMHEALHNRYTQKSLSLSP
# light: DIVMTQSPLSLPVTPGEPASISCRSSQSLVHSNRNTYLHWYQQKPGQAPRLLIYKVSNRFSGVPDRFSGSGSGTDFTLKISRVEAEDVGVYYCGQGTQVPYTFGQGTKLEIKRTVAAPSVFIFPPSDEQLKSGTASVVCLLNNFYPREAKVQWKVDNALQSGNSQESVTEQDSKDSTYSLSSTLTLSKADYEKHKVYACEVTHQGLSSPVTKSFNRGEC
# notes: one-arm antibody (one Fab)
# B2: CE115HA000 N53Q one-arm antibody (antibody, human IgG1, kappa, L234A L235A, N297A, name in Kabat numbering)
# heavy: B1 heavy with N56Q, D104G
# chain: B1 chain
# light: B1 light
# notes: one-arm antibody (one Fab)
# B3: CE115HA000 G100bD one-arm antibody (antibody, human IgG1, kappa, L234A L235A, N297A, name in Kabat numbering)
# heavy: B1 heavy with D104G, G108D
# chain: B1 chain
# light: B1 light
# notes: one-arm antibody (one Fab)
# B4: CE115HA000 G98S one-arm antibody (antibody, human IgG1, kappa, L234A L235A, N297A, name in Kabat numbering)
# heavy: B1 heavy with D104S
# chain: B1 chain
# light: B1 light
# notes: one-arm antibody (one Fab)
# B5: CE115HA000 G100bS one-arm antibody (antibody, human IgG1, kappa, L234A L235A, N297A, name in Kabat numbering)
# heavy: B1 heavy with D104G, G108S
# chain: B1 chain
# light: B1 light
# notes: one-arm antibody (one Fab)
# B6: CE115HA000 K75T one-arm antibody (antibody, human IgG1, kappa, L234A L235A, N297A, name in Kabat numbering)
# heavy: B1 heavy with K78T, D104G
# chain: B1 chain
# light: B1 light
# notes: one-arm antibody (one Fab)
# B7: CE115HA000 G98K one-arm antibody (antibody, human IgG1, kappa, L234A L235A, N297A, name in Kabat numbering)
# heavy: B1 heavy with D104K
# chain: B1 chain
# light: B1 light
# notes: one-arm antibody (one Fab)
# B8: CE115HA000 G100bL one-arm antibody (antibody, human IgG1, kappa, L234A L235A, N297A, name in Kabat numbering)
# heavy: B1 heavy with D104G, G108L
# chain: B1 chain
# light: B1 light
# notes: one-arm antibody (one Fab)
# B9: CE115HA000 K64Q one-arm antibody (antibody, human IgG1, kappa, L234A L235A, N297A, name in Kabat numbering)
# heavy: B1 heavy with K67Q, D104G
# chain: B1 chain
# light: B1 light
# notes: one-arm antibody (one Fab)
# B10: CE115HA000 G98P one-arm antibody (antibody, human IgG1, kappa, L234A L235A, N297A, name in Kabat numbering)
# heavy: B1 heavy with D104P
# chain: B1 chain
# light: B1 light
# notes: one-arm antibody (one Fab)
# B11: CE115HA000 H96P one-arm antibody (antibody, human IgG1, kappa, L234A L235A, N297A, name in Kabat numbering)
# heavy: B1 heavy with H102P, D104G
# chain: B1 chain
# light: B1 light
# notes: one-arm antibody (one Fab)
# B12: CE115HA000 N53S one-arm antibody (antibody, human IgG1, kappa, L234A L235A, N297A, name in Kabat numbering)
# heavy: B1 heavy with N56S, D104G
# chain: B1 chain
# light: B1 light
# notes: one-arm antibody (one Fab)
# B13: CE115HA000 N53Y one-arm antibody (antibody, human IgG1, kappa, L234A L235A, N297A, name in Kabat numbering)
# heavy: B1 heavy with N56Y, D104G
# chain: B1 chain
# light: B1 light
# notes: one-arm antibody (one Fab)
# B14: CE115HA000 G100bY one-arm antibody (antibody, human IgG1, kappa, L234A L235A, N297A, name in Kabat numbering)
# heavy: B1 heavy with D104G, G108Y
# chain: B1 chain
# light: B1 light
# notes: one-arm antibody (one Fab)
# B15: CE115HA000 H96S one-arm antibody (antibody, human IgG1, kappa, L234A L235A, N297A, name in Kabat numbering)
# heavy: B1 heavy with H102S, D104G
# chain: B1 chain
# light: B1 light
# notes: one-arm antibody (one Fab)
# B16: CE115HA000 G98Q one-arm antibody (antibody, human IgG1, kappa, L234A L235A, N297A, name in Kabat numbering)
# heavy: B1 heavy with D104Q
# chain: B1 chain
# light: B1 light
# notes: one-arm antibody (one Fab)
# B17: CE115HA000 K64S one-arm antibody (antibody, human IgG1, kappa, L234A L235A, N297A, name in Kabat numbering)
# heavy: B1 heavy with K67S, D104G
# chain: B1 chain
# light: B1 light
# notes: one-arm antibody (one Fab)
# B18: CE115HA000 H96R one-arm antibody (antibody, human IgG1, kappa, L234A L235A, N297A, name in Kabat numbering)
# heavy: B1 heavy with H102R, D104G
# chain: B1 chain
# light: B1 light
# notes: one-arm antibody (one Fab)
# B19: CE115HA000 L78I one-arm antibody (antibody, human IgG1, kappa, L234A L235A, N297A, name in Kabat numbering)
# heavy: B1 heavy with L81I, D104G
# chain: B1 chain
# light: B1 light
# notes: one-arm antibody (one Fab)
# B20: CE115HA000 G98R one-arm antibody (antibody, human IgG1, kappa, L234A L235A, N297A, name in Kabat numbering)
# heavy: B1 heavy with D104R
# chain: B1 chain
# light: B1 light
# notes: one-arm antibody (one Fab)
# B21: CE115HA000 K75R one-arm antibody (antibody, human IgG1, kappa, L234A L235A, N297A, name in Kabat numbering)
# heavy: B1 heavy with K78R, D104G
# chain: B1 chain
# light: B1 light
# notes: one-arm antibody (one Fab)
# B22: CE115HA000 G98H one-arm antibody (antibody, human IgG1, kappa, L234A L235A, N297A, name in Kabat numbering)
# heavy: B1 heavy with D104H
# chain: B1 chain
# light: B1 light
# notes: one-arm antibody (one Fab)
# B23: CE115HA000 H96K one-arm antibody (antibody, human IgG1, kappa, L234A L235A, N297A, name in Kabat numbering)
# heavy: B1 heavy with H102K, D104G
# chain: B1 chain
# light: B1 light
# notes: one-arm antibody (one Fab)
# B24: CE115HA000 H96Y one-arm antibody (antibody, human IgG1, kappa, L234A L235A, N297A, name in Kabat numbering)
# heavy: B1 heavy with H102Y, D104G
# chain: B1 chain
# light: B1 light
# notes: one-arm antibody (one Fab)
# B25: CE115HA000 G100bF one-arm antibody (antibody, human IgG1, kappa, L234A L235A, N297A, name in Kabat numbering)
# heavy: B1 heavy with D104G, G108F
# chain: B1 chain
# light: B1 light
# notes: one-arm antibody (one Fab)
# B26: CE115HA000 G98T one-arm antibody (antibody, human IgG1, kappa, L234A L235A, N297A, name in Kabat numbering)
# heavy: B1 heavy with D104T
# chain: B1 chain
# light: B1 light
# notes: one-arm antibody (one Fab)
# B27: CE115HA000 H96Q one-arm antibody (antibody, human IgG1, kappa, L234A L235A, N297A, name in Kabat numbering)
# heavy: B1 heavy with H102Q, D104G
# chain: B1 chain
# light: B1 light
# notes: one-arm antibody (one Fab)
# B28: CE115HA000 H96G one-arm antibody (antibody, human IgG1, kappa, L234A L235A, N297A, name in Kabat numbering)
# heavy: B1 heavy with H102G, D104G
# chain: B1 chain
# light: B1 light
# notes: one-arm antibody (one Fab)
# B29: CE115HA000 G100bE one-arm antibody (antibody, human IgG1, kappa, L234A L235A, N297A, name in Kabat numbering)
# heavy: B1 heavy with D104G, G108E
# chain: B1 chain
# light: B1 light
# notes: one-arm antibody (one Fab)
# B30: CE115HA000 N53W one-arm antibody (antibody, human IgG1, kappa, L234A L235A, N297A, name in Kabat numbering)
# heavy: B1 heavy with N56W, D104G
# chain: B1 chain
# light: B1 light
# notes: one-arm antibody (one Fab)
# B31: CE115HA000 H96L one-arm antibody (antibody, human IgG1, kappa, L234A L235A, N297A, name in Kabat numbering)
# heavy: B1 heavy with H102L, D104G
# chain: B1 chain
# light: B1 light
# notes: one-arm antibody (one Fab)
# B32: CE115HA000 G98Y one-arm antibody (antibody, human IgG1, kappa, L234A L235A, N297A, name in Kabat numbering)
# heavy: B1 heavy with D104Y
# chain: B1 chain
# light: B1 light
# notes: one-arm antibody (one Fab)
# Target: T1, CD3 epsilon homodimer protein (UniProt P07766 23-126)
# T1 construct: Immobilized on Sensor chip CM4 by amine coupling; construct not described; also called CD3 (CD3 epsilon)
# T1 sequence (P07766 23-126): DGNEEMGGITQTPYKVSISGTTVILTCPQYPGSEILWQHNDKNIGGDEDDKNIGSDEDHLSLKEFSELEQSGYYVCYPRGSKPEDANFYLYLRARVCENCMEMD
# Assay: SPR Biacore T200, CD3 epsilon homodimer on CM4 chip, antibody as analyte;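 also: Amine-coupled CD3 epsilon homodimer, run at 25 °C in HBS-EP+ buffer, ratio is bound amount of each single-residue H chain variant over that of the parent antibody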
row,Binder,ratio of amounts bound (Y/X vs CE115HA000)
1,B1,0.26
2,B2,1.1
3,B3,0.27
4,B4,1.01
5,B5,0.52
6,B6,0.84
7,B7,2.83
8,B8,0.27
9,B9,0.89
10,B10,1.02
11,B11,0.12
12,B12,0.83
13,B13,0.63
14,B14,0.23
15,B15,0.44
16,B16,1.22

row,Binder,ratio of amounts bound (Y/X vs CE115HA000)
1,B17,0.84
2,B18,0.46
3,B19,1.34
4,B20,2.96
5,B21,1.01
6,B22,1.58
7,B23,0.35
8,B24,0.17
9,B25,0.3
10,B26,1.05
11,B27,0.42
12,B28,0.43
13,B29,0.26
14,B30,0.88
15,B31,0.14
16,B32,2.22
